In US20220106400A1 (Bristol-Myers Squibb, published 2022):
Where “and” joins values, the source holds several entries; their conditions need not be identical. Equal entries are not always repeated. Where two headings read alike, the source gives them in different places.

T1: human CD73 on human tumor cell lines (human, UniProt P21589 27-549)
T1 sequence (looked up): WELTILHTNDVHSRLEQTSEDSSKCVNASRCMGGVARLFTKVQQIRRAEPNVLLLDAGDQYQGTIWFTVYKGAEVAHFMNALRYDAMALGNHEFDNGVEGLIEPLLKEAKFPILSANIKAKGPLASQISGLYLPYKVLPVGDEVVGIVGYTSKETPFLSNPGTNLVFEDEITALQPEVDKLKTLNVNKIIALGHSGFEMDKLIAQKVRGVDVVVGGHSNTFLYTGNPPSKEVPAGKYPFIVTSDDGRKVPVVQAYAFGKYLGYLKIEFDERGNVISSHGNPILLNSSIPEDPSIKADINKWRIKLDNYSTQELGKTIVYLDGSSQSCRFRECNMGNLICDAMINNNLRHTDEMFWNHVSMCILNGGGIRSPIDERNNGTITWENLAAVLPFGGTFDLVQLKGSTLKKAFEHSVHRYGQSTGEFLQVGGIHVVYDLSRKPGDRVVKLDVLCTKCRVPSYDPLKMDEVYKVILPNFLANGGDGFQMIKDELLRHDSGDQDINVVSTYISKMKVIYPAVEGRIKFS

T2: N-terminal domain of hCD73 (residues 26-336 of human CD73), his-tagged (human, UniProt P21589 26-336)
T2 construct: also called N-hCD73; N-hCD73-his
T2 sequence (looked up): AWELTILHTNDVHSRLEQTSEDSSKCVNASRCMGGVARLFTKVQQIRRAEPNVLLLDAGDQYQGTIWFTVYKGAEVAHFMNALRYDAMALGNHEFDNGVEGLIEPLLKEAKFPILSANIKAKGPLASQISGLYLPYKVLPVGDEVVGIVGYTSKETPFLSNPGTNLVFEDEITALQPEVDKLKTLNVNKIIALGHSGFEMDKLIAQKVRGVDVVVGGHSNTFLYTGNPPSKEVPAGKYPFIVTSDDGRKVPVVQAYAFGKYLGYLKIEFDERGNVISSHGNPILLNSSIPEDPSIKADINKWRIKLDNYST

T3: full length extracellular domain of human-CD73 with C-terminal polyhistidine tag (residues 26-546) (human, UniProt P21589 26-546)
T3 construct: range 26-546; also called hCD73-his; CD73-his
T3 sequence (looked up): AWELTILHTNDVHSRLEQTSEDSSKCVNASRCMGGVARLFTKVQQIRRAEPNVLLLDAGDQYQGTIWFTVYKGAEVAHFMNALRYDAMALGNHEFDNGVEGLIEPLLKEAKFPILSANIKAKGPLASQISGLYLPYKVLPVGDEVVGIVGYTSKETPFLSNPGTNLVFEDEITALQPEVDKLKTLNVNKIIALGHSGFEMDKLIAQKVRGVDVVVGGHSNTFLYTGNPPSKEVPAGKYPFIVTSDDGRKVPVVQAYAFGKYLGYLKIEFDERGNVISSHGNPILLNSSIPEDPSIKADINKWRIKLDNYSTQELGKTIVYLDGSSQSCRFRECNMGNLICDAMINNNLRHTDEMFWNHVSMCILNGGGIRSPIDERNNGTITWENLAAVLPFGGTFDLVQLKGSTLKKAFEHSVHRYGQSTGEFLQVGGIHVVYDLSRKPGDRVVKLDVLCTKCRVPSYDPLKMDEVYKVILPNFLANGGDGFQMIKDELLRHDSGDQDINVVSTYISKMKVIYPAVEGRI


Key:
[1] = biological target: T1, human CD73 on human tumor cell lines; experiment: cell-based or functional assay
[2] = biological target: T2, N-terminal domain of hCD73 (residues …); experiment: SPR Biacore T100, mAb captured on protein A, N-hCD73-his analyte, 25 C; separate experiment
Experimental: (§1) The affinity of the antibodies for human CD73 was measured to determine whether the change of the constant region affects them. The affinities were determined by Surface Plasmon Resonance (SPR) as follows. […] For these experiments, protein A (Pierce) was immobilized to a density of 3000-4000 RU on flow cells 1-4 of a CM5 sensor chip (GE Healthcare) using standard ethyl(dimethylaminopropyl) carbodiimide (EDC)/N-hydroxysuccinimide (NHS) chemistry, with ethanolamine blocking, in a running buffer of 0.01 M HEPES pH 7.4, 0.15 M NaCl, 3 mM EDTA, 0.005% v/v tween 20. Kinetic experiments were performed by first capturing antibodies (5-10 ug/ml) on the protein A surfaces using a 30 s contact time at 10 ul/min, with binding of 600, 200, 66.7, 22.2, 7.4, and 2.5 nM N-hCD73-his, using a 180 s association time and 360 s dissociation time at a flow rate of 30 ul/min. The running buffer for the kinetic experiments was 10 mM sodium phosphate, 130 mM sodium chloride, 0.05% tween 20, pH 7.1. The surfaces were regenerated after each cycle using two 30 s pulses of 10 mM glycine pH 1.5 at a flow rate of 30 μl/min. Sensogram data was double-referenced and then fitted to a 1:1 Langmuir model using Biacore T100 evaluation software v2.0.4, to determine the association rate constant (ka), the dissociation rate constant (kd), and the equilibrium dissociation constant (KD).

[3] = biological target: T2, N-terminal domain of hCD73 (residues …); experiment: SPR Biacore T100, mAb captured on protein A, N-hCD73-his analyte, 25 C
Experimental: as §1

[4] = biological target: T1, human CD73 on human tumor cell lines; experiment: cell-based or functional assay; remark: listed apart in the source
[5] = biological target: T1, human CD73 on human tumor cell lines; experiment: cell-based or functional assay; remark: listed apart in the source
[6] = biological target: T3, full length extracellular domain of …; experiment: SEC, 1:1 molar mix 5.5 uM each
Experimental: The oligomeric state of CD73/antibody complexes were examined by size-exclusion chromatography coupled to an in-line multi-angle light scattering detector (SEC-MALS). Isocratic separations were performed on a Shodex PROTEIN KW-803 column connected to an Prominence Shimadzu UFLC in buffer containing 200 mM K₂HPO₄, 150 mM NaCl, pH 6.8, containing 0.02% Na azide (0.1 μm filtered) running at 0.5 mL/min. Samples were injected onto the column using a SIL-20AC Prominence Shimadzu autosampler, and data were obtained from three online detectors connected in series: a Prominence SPD-20AD diode array UV/vis spectrophotometer followed by a Wyatt miniDAWN™ TREOS Multi-Angle Light Scattering Detector then a Wyatt Optilab T-rEX Refractive Index Detector. Data were collected and analyzed using Astra (Wyatt) and Labsolutions (Shimadzu) software.
CD73.4 antibodies having the heavy chain constant regions set forth in Table 14 were also tested for formation of high molecular weight complexes by SEC-MALS and DLS experiments, as described in Example 3.

[7] = biological target: T1, human CD73 on human tumor cell lines; experiment: cell-based or functional assay; remark: listed apart in the source

Binder	EC50 of CD73 internalization, Calu6, 2 h [1]	Ymax of CD73 internalization, Calu6, 2 h [1]	Kd [2]	koff [2]	kon [2]	Kd [3]	koff [3]	kon [3]	% internalization, Calu6 [4]	% internalization, H2030 [4]	% internalization, H2228 [4]	% internalization, HCC15 [4]	T1/2 internalization, Calu6 [4]	T1/2 internalization, H2030 [4]	T1/2 internalization, H2228 [4]	T1/2 internalization, HCC15 [4]	other results
11F11 (antibody, human IgG2, kappa, V domains shown, hybridoma derived anti-CD73 antibody, IgG2 constant region; also called 11F11(IgG2)) VH: QVQLVESGGGVVQPGRSLRLSCATSGFTFSNYGMHWVRQAPGKGLEWVAVILYDGSNKYYPDSVKGRFTISRDNSKNTLYLQMNSLRAEDTAVYYCARGGSSWYPDSFDIWGQGTMVTVSS VL: DIQMTQSPSSLSASVGDRVTITCRASQGISSWLAWYQQKPEKAPKSLIYAASSLQSGVPSRFSGSGSGTDFTLTISSLQPEDFATYYCQQYNSYPLTFGGGTKVEIKR	0.58 nM	98 % of 100 nM 11F11	0.56 nM	0.00016 s⁻¹	290000 M⁻¹ s⁻¹	1.6 nM	0.00042 s⁻¹	260000 M⁻¹ s⁻¹									
CD73.10-IgG2-C219S (antibody, anti-CD73; also called CD73.10-IgG2CS; CD73.10-Vh-hHC-IgG2-C219S) heavy: QVQLVESGGGVVQPGRSLRLSCAASGFTFSNYGMHWVRQAPGKGLEWVAVIWYDESNKYYPDSVKGRFTISRDNSKNTLYLQMNSLRAEDTAVYYCARGGSSWYPDSFDIWGQGTMVTVSSASTKGPSVFPLAPCSRSTSESTAALGCLVKDYFPEPVTVSWNSGALTSGVHTFPAVLQSSGLYSLSSVVTVPSSNFGTQTYTCNVDHKPSNTKVDKTVERKSCVECPPCPAPPVAGPSVFLFPPKPKDTLMISRTPEVTCVVVDVSHEDPEVQFNWYVDGVEVHNAKTKPREEQFNSTFRVVSVLTVVHQDWLNGKEYKCKVSNKGLPAPIEKTISKTKGQPREPQVYTLPPSREEMTKNQVSLTCLVKGFYPSDIAVEWESNGQPENNYKTTPPMLDSDGSFFLYSKLTVDKSRWQQGNVFSCSVMHEALHNHYTQKSLSLSPG light: not shown	0.67 nM	99 % of 100 nM 11F11	8.3 nM	0.0018 s⁻¹	220000 M⁻¹ s⁻¹	6.2 nM	0.0014 s⁻¹	220000 M⁻¹ s⁻¹	91%	85%	93%	91%	3 min	3.3 min	9.7 min	2.6 min	
CD73.4-IgG2-C219S (antibody, anti-CD73; also called CD73.4-IgG2CS; CD73.4-IgG2.3) heavy: QVQLVESGGGVVQPGRSLRLSCAASGFTFSNYGMHWVRQAPGKGLEWVAVILYDGSNKYYPDSVKGRFTISRDNSKNTLYLQMNSLRAEDTAVYYCARGGSSWYPDSFDIWGQGTMVTVSSASTKGPSVFPLAPCSRSTSESTAALGCLVKDYFPEPVTVSWNSGALTSGVHTFPAVLQSSGLYSLSSVVTVPSSNFGTQTYTCNVDHKPSNTKVDKTVERKSCVECPPCPAPPVAGPSVFLFPPKPKDTLMISRTPEVTCVVVDVSHEDPEVQFNWYVDGVEVHNAKTKPREEQFNSTFRVVSVLTVVHQDWLNGKEYKCKVSNKGLPAPIEKTISKTKGQPREPQVYTLPPSREEMTKNQVSLTCLVKGFYPSDIAVEWESNGQPENNYKTTPPMLDSDGSFFLYSKLTVDKSRWQQGNVFSCSVMHEALHNHYTQKSLSLSPG light: not shown						0.55 nM			88%	89%	94%	94%	6.5 min	3.7 min	13.8 min	3.1 min	T1/2 internalization, Calu6 [5]: 22.4 min and 21.8 min; T1/2 internalization, NCI-H292 [5]: 17.2 min and 17.1 min; UV % Peak1 <12.9 min [6]: 37%; UV % Peak3 15.1-16.7 min [6]: 7.7%; UV % Peak4 16.7-19.3 min (free mAb) [6]: 28.6%; UV % Peak5 >19.3 min [6]: 2.9%; T1/2 internalization, Calu6 [7]: 36 min; T1/2 internalization, NCI-H292 [7]: 16.6 min; Ymax internalization, Calu6 [7]: 75.6%; Ymax internalization, NCI-H292 [7]: 78.4%
CD73.10-IgG2-C219S-IgG1.1 (antibody, anti-CD73; also called CD73.10-IgG2CS-IgG1.1f; CD73.10-Vh-hHC-IgG2-C219S-IgG1.1f) heavy: QVQLVESGGGVVQPGRSLRLSCAASGFTFSNYGMHWVRQAPGKGLEWVAVIWYDESNKYYPDSVKGRFTISRDNSKNTLYLQMNSLRAEDTAVYYCARGGSSWYPDSFDIWGQGTMVTVSSASTKGPSVFPLAPCSRSTSESTAALGCLVKDYFPEPVTVSWNSGALTSGVHTFPAVLQSSGLYSLSSVVTVPSSNFGTQTYTCNVDHKPSNTKVDKTVERKSCVECPPCPAPPVAGPSVFLFPPKPKDTLMISRTPEVTCVVVDVSHEDPEVKFNWYVDGVEVHNAKTKPREEQYNSTYRVVSVLTVLHQDWLNGKEYKCKVSNKALPSSIEKTISKAKGQPREPQVYTLPPSREEMTKNQVSLTCLVKGFYPSDIAVEWESNGQPENNYKTTPPMLDSDGSFFLYSKLTVDKSRWQQGNVFSCSVMHEALHNHYTQKSLSLSPG light: not shown	0.87 nM	99 % of 100 nM 11F11	6.8 nM	0.0016 s⁻¹	230000 M⁻¹ s⁻¹	5.7 nM	0.0014 s⁻¹	240000 M⁻¹ s⁻¹	91%	87%	92%	91%	3.1 min	4.3 min	9.4 min	3 min	
